Patent US9340582B2, “Bioconjugates of synthetic apelin polypeptides” (NOVARTIS AG, priority 2013, dated 2016)
Bridge positions count the residues as written; N and C are the ends. Square brackets hold non-standard residues; d marks the D form. * marks the point of attachment. Propanoyl(3-maleimido) = O=C1C=CC(=O)N1CCC(=O)*; Nle = CCCC[C@H](N)C(=O)O; AEEA = NCCOCCOCC(=O)O

Assays:
[1] = Surrogate activity-based plasma stability assay; settings: for Surrogate activity-based Plasma stability t½: Table 2
hAPJ = target: T1, hAPJ (Homo sapiens, UniProt P35414); assay: hAPJ Calcium Flux Assay; format: cell-based; settings: Chem-5 APJ stable cells, FLIPR calcium flux; read-out: hAPJ Ca^2+ Flux EC50
T1 sequence (P35414 1-380): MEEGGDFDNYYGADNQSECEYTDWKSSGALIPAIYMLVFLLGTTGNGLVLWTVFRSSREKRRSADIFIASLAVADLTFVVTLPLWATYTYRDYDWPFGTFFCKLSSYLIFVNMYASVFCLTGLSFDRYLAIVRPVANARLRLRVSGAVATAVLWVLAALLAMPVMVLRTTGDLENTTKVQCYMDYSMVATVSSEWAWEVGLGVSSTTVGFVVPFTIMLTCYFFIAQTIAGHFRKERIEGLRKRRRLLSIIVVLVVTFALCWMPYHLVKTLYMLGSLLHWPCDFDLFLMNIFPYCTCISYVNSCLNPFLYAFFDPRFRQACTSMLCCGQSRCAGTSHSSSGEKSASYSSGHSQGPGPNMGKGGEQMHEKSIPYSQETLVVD
Protocol: Chem-5 APJ stable cells (Millipore #HTS068C) were plated in 384-well format with 10,000 cells/well in 25 ul growth media, then grown 24 hours in a 37° C. tissue culture incubator. One hour before the assay, 25 ul/well FLIPR Calcium 4 dye (Molecular Devices R8142) with 2.5 mM probenecid was added, and cells were incubated one hour in a 37° C. tissue culture incubator. Bioconjugates were solubilized in HBSS, HEPES & 0.1% BSA buffer, and serially-diluted 10-fold, from 50 uM to 5 pM, in triplicate. FLIPR Tetra was used to add bioconjugates to the cells with dye (1:5, for final bioconjugate concentrations ranging from 10 uM to 1 pM). FLIPR dye inside the cells emitted fluorescence after binding to calcium, while fluorescence from outside the cells was masked. […] Readings were done for 3 minutes total, beginning 10 seconds before the bioconjugate addition. Maximum-minimum values were calculated and plotted for each bioconjugate concentration, and GraphPad prism software was used to calculate EC50 values at the curve inflection points, for calcium flux stimulation by bioconjugates.

[2] = Plasma Stability Assay (LC-MS); format: in vitro ADME; settings: Table 3, rat plasma, 37° C.
Protocol: • Materials: • Working solution: 1 mg/mL test article is prepared in Milli-Q water • Extraction solution: Methanol:Acetonitrile:Water (1:1:1) with 0.1% Formic Acid and 400 ng/mL Glyburide. • Plasma: Male Sprague-Dawley rat plasma (with sodium heparin), purchased from Bioreclamation LLC (Liverpool, N.Y.). • Whole blood: Male Sprague Dawley whole blood (with sodium heparin), purchased from Bioreclamation LLC (Liverpool, N.Y.) • Lung homogenate: Male rat Sprague Dawley lung was purchased from Bioreclamation LLC (Liverpool, N.Y.). The lung was homogenized using polytron homogenizer after addition of 5× volume of 1×PBS. The homogenate was centrifuged at 9000 rpm for 10 min at 4° C. The supernatant was centrifuged again at 3000 rpm for 30 min to make a clear supernatant. Protein concentration was determined using a commercial kit (Pierce, Thermo Scientific). Sample Preparation Procedure: (peptides)
Test article was prepared in one of the following biological matrices: heparinized rat plasma, heparinized rat whole blood or lung homogenate. The plasma and whole blood sample was prepared at 5000 ng/mL by adding 5 uL of 1 mg/mL Working solution to 995 uL of rat plasma or whole blood. […]

EC50 (hAPJ) | Substance | Surrogate activity-based Plasma stability t½ [1] | Surrogate Activity based Plasma stability t½ ([1]; Table 3) | Plasma stability t½ [2]
52 nM | Albumin-MPA-NHCH2CH2CH2−OCH2CH2OCH2CH2O-CH2CH2CH2NH-C(O)CH2CH2C═O-A-R-P-R-L-S-H-K-G-P-Nle-P-F-OH (ARPRLSHKGPLPF; albumin-MPA linker conjugate; Nle residue) [Example 3] | 0.405 h |  | 
 | Albumin-MPA-O2Oc-O2Oc-O2Oc-O2Oc-Q-R-P-R-L-C*-H-F-G-P-Nle-C*-f-OH [Example 1] | >16.67 h |  | 
92.4 nM | Albumin-TPA-O2Oc-O2Oc-O2Oc-O2Oc-Q-R-P-R-L-C*-H-F-G-P-Nle-C*-f-OH [Example 2] | >16.67 h | >16.67 h | ~24 h
 | Example 4: Fc-Apelin fusion SEQ ID NO: 98; linker GGGGSGGGGS, polypeptide QRPRLSHKGPMPF | 3.53 h |  | 
 | Example 5: Fc-Apelin fusion SEQ ID NO: 99; linker GGGGSGGGGSGGGGS, polypeptide QRPRLSHKGPMPF | 5.57 h |  | 

Substance | EC50 (hAPJ) | Surrogate activity-based Plasma stability t½ [1] | Surrogate Activity based Plasma stability t½ ([1]; Table 3) | Plasma stability t½ [2]
Albumin-MPA-O2Oc-O2Oc-O2Oc-O2Oc-Q-R-P-R-L-C*-H-F-G-P-Nle-C*-f-OH ({albumin-Propanoyl(3-maleimido)}-[AEEA][AEEA][AEEA][AEEA]QRPRLCHFGP[Nle]C[dF]-OH; disulfide 10-16; also: albumin conjugate) [Example 1] | 47.2 nM |  |  | 
